# From publication PMC9637774
# What was measured:
# [1] = target: T1, Dicer-1 (Dcr-1);Loqs-PB (Loquacious isoform PB) (Drosophila melanogaster;Drosophila …, UniProt Q9VCU9;Q9VJY9 1-2249;1-465, |); test: cryo-EM structure
# [2] = target: T1, Dicer-1 (Dcr-1);Loqs-PB (Loquacious …); test: competition
# [3] = target: T1, Dicer-1 (Dcr-1);Loqs-PB (Loquacious …); test: cryo-EM structure; remark: listed apart in the source
# [4] = target: T1, Dicer-1 (Dcr-1);Loqs-PB (Loquacious …); test: cryo-EM structure; remark: listed apart in the source
# T1 sequence (Q9VCU9 whole entry, chain 1 of 2, canonical isoform): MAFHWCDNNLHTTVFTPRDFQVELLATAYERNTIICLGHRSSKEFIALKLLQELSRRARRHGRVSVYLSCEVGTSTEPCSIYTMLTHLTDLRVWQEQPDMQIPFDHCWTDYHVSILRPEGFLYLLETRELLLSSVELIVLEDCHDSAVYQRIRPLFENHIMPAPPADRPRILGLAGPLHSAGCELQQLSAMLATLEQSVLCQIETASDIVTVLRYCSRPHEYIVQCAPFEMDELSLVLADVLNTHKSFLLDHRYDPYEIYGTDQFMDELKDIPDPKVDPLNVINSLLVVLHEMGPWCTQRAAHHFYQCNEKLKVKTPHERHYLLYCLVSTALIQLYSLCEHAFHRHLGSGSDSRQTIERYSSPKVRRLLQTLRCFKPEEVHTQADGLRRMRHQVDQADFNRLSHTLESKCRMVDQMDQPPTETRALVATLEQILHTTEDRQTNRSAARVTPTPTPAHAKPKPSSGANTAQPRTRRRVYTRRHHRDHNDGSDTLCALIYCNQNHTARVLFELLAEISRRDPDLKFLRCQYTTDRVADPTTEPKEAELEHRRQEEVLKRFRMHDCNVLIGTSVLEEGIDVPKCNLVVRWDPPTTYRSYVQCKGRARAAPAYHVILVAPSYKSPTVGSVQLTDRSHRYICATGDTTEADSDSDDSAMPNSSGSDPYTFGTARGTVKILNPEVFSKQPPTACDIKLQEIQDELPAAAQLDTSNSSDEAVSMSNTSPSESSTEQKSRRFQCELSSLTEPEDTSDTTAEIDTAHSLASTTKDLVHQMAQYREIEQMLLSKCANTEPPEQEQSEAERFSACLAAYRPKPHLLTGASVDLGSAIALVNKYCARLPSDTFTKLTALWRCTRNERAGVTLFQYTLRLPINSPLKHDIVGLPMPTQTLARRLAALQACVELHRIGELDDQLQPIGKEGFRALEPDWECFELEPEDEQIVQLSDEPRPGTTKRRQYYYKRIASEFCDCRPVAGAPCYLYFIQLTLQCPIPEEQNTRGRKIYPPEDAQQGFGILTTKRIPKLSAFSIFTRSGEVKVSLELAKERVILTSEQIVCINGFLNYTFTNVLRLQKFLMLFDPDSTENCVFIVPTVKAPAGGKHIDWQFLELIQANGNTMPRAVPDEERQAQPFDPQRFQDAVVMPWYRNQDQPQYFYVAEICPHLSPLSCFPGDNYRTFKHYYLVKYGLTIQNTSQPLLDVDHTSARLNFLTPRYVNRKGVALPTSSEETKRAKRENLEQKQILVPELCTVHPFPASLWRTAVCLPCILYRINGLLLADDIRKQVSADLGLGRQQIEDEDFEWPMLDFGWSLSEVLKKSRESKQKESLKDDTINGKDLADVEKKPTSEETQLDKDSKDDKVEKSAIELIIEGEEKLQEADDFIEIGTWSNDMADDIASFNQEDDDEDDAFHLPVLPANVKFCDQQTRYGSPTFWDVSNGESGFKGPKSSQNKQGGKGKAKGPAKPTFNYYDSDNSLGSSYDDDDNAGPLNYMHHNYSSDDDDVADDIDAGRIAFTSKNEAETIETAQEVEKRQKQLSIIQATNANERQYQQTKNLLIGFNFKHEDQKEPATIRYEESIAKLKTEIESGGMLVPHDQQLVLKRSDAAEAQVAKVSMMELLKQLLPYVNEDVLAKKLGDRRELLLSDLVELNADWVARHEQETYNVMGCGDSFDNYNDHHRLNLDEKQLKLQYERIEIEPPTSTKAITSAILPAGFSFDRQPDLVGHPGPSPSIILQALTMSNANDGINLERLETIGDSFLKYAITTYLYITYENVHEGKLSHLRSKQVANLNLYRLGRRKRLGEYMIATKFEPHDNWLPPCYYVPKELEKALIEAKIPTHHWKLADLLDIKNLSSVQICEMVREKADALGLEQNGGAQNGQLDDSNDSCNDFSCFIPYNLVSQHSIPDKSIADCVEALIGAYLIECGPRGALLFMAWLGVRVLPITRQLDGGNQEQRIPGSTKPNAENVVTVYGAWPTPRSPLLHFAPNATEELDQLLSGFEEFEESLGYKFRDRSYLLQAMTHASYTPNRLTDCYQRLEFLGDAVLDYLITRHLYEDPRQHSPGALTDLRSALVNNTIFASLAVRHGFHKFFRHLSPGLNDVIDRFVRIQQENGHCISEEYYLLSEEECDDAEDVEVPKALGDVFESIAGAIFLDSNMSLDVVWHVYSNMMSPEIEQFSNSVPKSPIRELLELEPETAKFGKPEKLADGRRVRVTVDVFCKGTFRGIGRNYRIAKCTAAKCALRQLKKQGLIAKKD
# T1 sequence (Q9VJY9 whole entry, chain 2 of 2, canonical isoform): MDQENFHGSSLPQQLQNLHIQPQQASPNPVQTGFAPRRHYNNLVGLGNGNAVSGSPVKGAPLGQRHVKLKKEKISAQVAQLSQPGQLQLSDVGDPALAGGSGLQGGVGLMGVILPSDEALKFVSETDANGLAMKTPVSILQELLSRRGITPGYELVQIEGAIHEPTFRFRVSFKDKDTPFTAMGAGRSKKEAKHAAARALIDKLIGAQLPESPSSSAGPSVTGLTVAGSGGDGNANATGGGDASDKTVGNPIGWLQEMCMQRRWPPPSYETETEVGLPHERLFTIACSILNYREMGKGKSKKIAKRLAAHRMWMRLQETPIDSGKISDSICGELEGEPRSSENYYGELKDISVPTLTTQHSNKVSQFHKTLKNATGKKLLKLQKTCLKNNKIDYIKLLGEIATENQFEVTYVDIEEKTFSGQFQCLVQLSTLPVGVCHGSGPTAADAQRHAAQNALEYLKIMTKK
binder,measurement,setting,value
"model pre-miRNA (structured_RNA, 5' phosphate) RNA: UGAGGUAGUAGGUUGUAUAGUAGUAAUUACACAUCAUACUAUACAACCUACUACCUCUCU",binding result,[1],binds
"pre-let-7 (structured_RNA, 5' phosphate) RNA: UGAGGUAGUAGGUUGUAUAGUAGUAAUUACACAUCAUACUAUACAAUGUGCUAGCUUUCU",binding result,[2],binds
"nicked model pre-miRNA (5' arm cleaved) (structured_RNA, 5' phosphate) RNA 1: UGAGGUAGUAGGUUGUAUAGUA RNA 2: GUAAUUACACAUCAUACUAUACAACCUACUACCUCUCU",binding result,[3],binds
"model miRNA/miRNA* duplex (dsRNA, 5' phosphates) RNA 1: UGAGGUAGUAGGUUGUAUAGUA RNA 2: CUAUACAACCUACUACCUCUCU",binding result,[4],binds
